Reference: patent US20230407373A1 (priority 2020, published 2023)

B1: HIST1H1D (protein, UniProt P16402 2-221, looked up)
Histone H1.3: SETAPLAPTIPAPAEKTPVKKKAKKAGATAGKRKASGPPVSELITKAVAASKERSGVSLAALKKALAAAGYDVEKNNSRIKLGLKSLVSKGTLVQTKGTGASGSFKLNKKAASGEGKPKAKKAGAAKPRKPAGAAKKPKKVAGAATPKKSIKKTPKKVKKPATAAGTKKVAKSAKKVKTPQPKKAAKSPAKAKAPKPKAAKPKSGKPKVTKAKKAAPKKK
B2: ZNF622 (protein, UniProt Q969S3 2-477, looked up)
Cytoplasmic 60S subunit …: ATYTCITCRVAFRDADMQRAHYKTDWHRYNLRRKVASMAPVTAEGFQERVRAQRAVAEEESKGSATYCTVCSKKFASFNAYENHLKSRRHVELEKKAVQAVNRKVEMMNEKNLEKGLGVDSVDKDAMNAAIQQAIKAQPSMSPKKAPPAPAKEARNVVAVGTGGRGTHDRDPSEKPPRLQWFEQQAKKLAKQQEEDSEEEEEDLDGDDWEDIDSDEELECEDTEAMDDVVEQDAEEEEAEEGPPLGAIPITDCLFCSHHSSSLMKNVAHMTKDHSFFIPDIEYLSDIKGLIKYLGEKVGVGKICLWCNEKGKSFYSTEAVQAHMNDKSHCKLFTDGDAALEFADFYDFRSSYPDHKEGEDPNKAEELPSEKNLEYDDETMELILPSGARVGHRSLMRYYKQRFGLSRAVAVAKNRKAVGRVLQQYRALGWTGSTGAALMRERDMQYVQRMKSKWMLKTGMKNNATKQMHFRVQVRF
B3: PATLI (protein, UniProt Q86TB9 1-770, looked up)
Protein PAT1 homolog 1: MFRYESLEDCPLDEDEDAFQGLGEEDEEIDQFNDDTFGSGAVDDDWQEAHERLAELEEKLPVAVNEQTGNGERDEMDLLGDHEENLAERLSKMVIENELEDPAIMRAVQTRPVLQPQPGSLNSSIWDGSEVLRRIRGPLLAQEMPTVSVLEYALPQRPPQGPEDDRDLSERALPRRSTSPIIGSPPVRAVPIGTPPKQMAVPSFTQQILCPKPVHVRPPMPPRYPAPYGERMSPNQLCSVPNSSLLGHPFPPSVPPVLSPLQRAQLLGGAQLQPGRMSPSQFARVPGFVGSPLAAMNPKLLQGRVGQMLPPAPGFRAFFSAPPSATPPPQQHPPGPGPHLQNLRSQAPMFRPDTTHLHPQHRRLLHQRQQQNRSQHRNLNGAGDRGSHRSSHQDHLRKDPYANLMLQREKDWVSKIQMMQLQSTDPYLDDFYYQNYFEKLEKLSAAEEIQGDGPKKERTKLITPQVAKLEHAYKPVQFEGSLGKLTVSSVNNPRKMIDAVVTSRSEDDETKEKQVRDKRRKTLVIIEKTYSLLLDVEDYERRYLLSLEEERPALMDDRKHKICSMYDNLRGKLPGQERPSDDHFVQIMCIRKGKRMVARILPFLSTEQAADILMTTARNLPFLIKKDAQDEVLPCLLSPFSLLLYHLPSVSITSLLRQLMNLPQSAATPALSNPHLTAVLQNKFGLSLLLILLSRGEDLQSSDPATESTQNNQWTEVMFMATRELLRIPQAALAKPISIPTNLVSLFSRYVDRQKLNLLETKLQLVQGIR
B4: NFXL1 (protein, UniProt Q6ZNB6 1-911, looked up)
NF-X1-type zinc finger …: MEASWRQVAGGRGRSRGRATAAPSGNGVHLRGAGGGREKGSVGAVPSGTSPGGVATTAAAGSRHSPAGSQALQTTAASELMSQKKFEEIKKANQAAARKLVEEQFSSSSEEGDEDFEGKQGKILANTFITYTTQTDGDTRELERTKQYVNEAFQAGAMTCLICIASVKRNQAVWSCSGCFCIFHMPCIQKWAKDSQFLVSSVTDDDFGKKDCPWPCPKCRFEYKRSETPSRYYCYCGKVEDPPLDPWLVPHSCGQVCEREFKPPCGHKCLLLCHPGPCPPCPKMVTTTCYCKKAKPIPRRCSAKEWSCQLPCGQKLLCGQHKCENPCHAGSCQPCPRVSRQKCVCGKKVAERSCASPLWHCDQVCGKTLPCGNHTCEQVCHVGACGECPRSGKRFCPCQKSKFSLPCTEDVPTCGDSCDKVLECGIHRCSQRCHRGPCETCRQEVEKHCRCGKHTKRMPCHKPYLCETKCVKMRDCQKHQCRRKCCPGNCPPCDQNCGRTLGCRNHKCPSVCHRGSCYPCPETVDVKCNCGNTKVTVPCGRERTTRPPKCKEQCSRPPTCHHTSQEKHRCHFGSCPPCHQPCQKVLEKCGHLCPAPCHDQALIKQTGRHQPTGPWEQPSEPAFIQTALPCPPCQVPIPMECLGKHEVSPLPCHAVGPYSCKRVCGRILDCQNHTCMKECHKVTKTDGCTGKNKAGPECLHCEEGCSKSRPLGCLHPCILRCHPGECPPCVQMLRIKCHCKITSLYVECRKITTADVNEKNLLSCCKNQCPKELPCGHRCKEMCHPGECPFNCNQKVKLRCPCKRIKKELQCNKVRENQVSIECDTTCKEMKRKASEIKEAEAKAALEEEKRRQQAELEAFENRLKGRRKKNRKRDEVAVELSLWQKHKYYLISVCGVVVVVFAWYITHDVN
B5: EEF1A2 (protein, UniProt Q05639 2-463, looked up)
Elongation factor 1-alpha 2: GKEKTHINIVVIGHVDSGKSTTTGHLIYKCGGIDKRTIEKFEKEAAEMGKGSFKYAWVLDKLKAERERGITIDISLWKFETTKYYITIIDAPGHRDFIKNMITGTSQADCAVLIVAAGVGEFEAGISKNGQTREHALLAYTLGVKQLIVGVNKMDSTEPAYSEKRYDEIVKEVSAYIKKIGYNPATVPFVPISGWHGDNMLEPSPNMPWFKGWKVERKEGNASGVSLLEALDTILPPTRPTDKPLRLPLQDVYKIGGIGTVPVGRVETGILRPGMVVTFAPVNITTEVKSVEMHHEALSEALPGDNVGFNVKNVSVKDIRRGNVCGDSKSDPPQEAAQFTSQVIILNHPGQISAGYSPVIDCHTAHIACKFAELKEKIDRRSGKKLEDNPKSLKSGDAAIVEMVPGKPMCVESFSQYPPLGRFAVRDMRQTVAVGVIKNVEKKSGGAGKVTKSAQKAQKAGK
B6: VIL1 (protein, UniProt P09327 2-827, looked up)
Villin-1: TKLSAQVKGSLNITTPGLQIWRIEAMQMVPVPSSTFGSFFDGDCYIILAIHKTASSLSYDIHYWIGQDSSLDEQGAAAIYTTQMDDFLKGRAVQHREVQGNESEAFRGYFKQGLVIRKGGVASGMKHVETNSYDVQRLLHVKGKRNVVAGEVEMSWKSFNRGDVFLLDLGKLIIQWNGPESTRMERLRGMTLAKEIRDQERGGRTYVGVVDGENELASPKLMEVMNHVLGKRRELKAAVPDTVVEPALKAALKLYHVSDSEGNLVVREVATRPLTQDLLSHEDCYILDQGGLKIYVWKGKKANEQEKKGAMSHALNFIKAKQYPPSTQVEVQNDGAESAVFQQLFQKWTASNRTSGLGKTHTVGSVAKVEQVKFDATSMHVKPQVAAQQKMVDDGSGEVQVWRIENLELVPVDSKWLGHFYGGDCYLLLYTYLIGEKQHYLLYVWQGSQASQDEITASAYQAVILDQKYNGEPVQIRVPMGKEPPHLMSIFKGRMVVYQGGTSRTNNLETGPSTRLFQVQGTGANNTKAFEVPARANFLNSNDVFVLKTQSCCYLWCGKGCSGDEREMAKMVADTISRTEKQVVVEGQEPANFWMALGGKAPYANTKRLQEENLVITPRLFECSNKTGRFLATEIPDFNQDDLEEDDVFLLDVWDQVFFWIGKHANEEEKKAAATTAQEYLKTHPSGRDPETPIIVVKQGHEPPTFTGWFLAWDPFKWSNTKSYEDLKAELGNSRDWSQITAEVTSPKVDVFNANSNLSSGPLPIFPLEQLVNKPVEELPEGVDPSRKEEHLSIEDFTQAFGMTPAAFSALPRWKQQNLKKEKGLF
B7: GANAB (protein, UniProt Q14697 29-944, looked up)
Neutral alpha-glucosidase AB: ITLAVDRSNFKTCEESSFCKRQRSIRPGLSPYRALLDSLQLGPDSLTVHLIHEVTKVLLVLELQGLQKNMTRFRIDELEPRRPRYRVPDVLVADPPIARLSVSGRDENSVELTMAEGPYKIILTARPFRLDLLEDRSLLLSVNARGLLEFEHQRAPRVSQGSKDPAEGDGAQPEETPRDGDKPEETQGKAEKDEPGAWEETFKTHSDSKPYGPMSVGLDFSLPGMEHVYGIPEHADNLRLKVTEGGEPYRLYNLDVFQYELYNPMALYGSVPVLLAHNPHRDLGIFWLNAAETWVDISSNTAGKTLFGKMMDYLQGSGETPQTDVRWMSETGIIDVFLLLGPSISDVFRQYASLTGTQALPPLFSLGYHQSRWNYRDEADVLEVDQGFDDHNLPCDVIWLDIEHADGKRYFTWDPSRFPQPRTMLERLASKRRKLVAIVDPHIKVDSGYRVHEELRNLGLYVKTRDGSDYEGWCWPGSAGYPDFTNPTMRAWWANMFSYDNYEGSAPNLFVWNDMNEPSVFNGPEVTMLKDAQHYGGWEHRDVHNIYGLYVHMATADGLRQRSGGMERPFVLARAFFAGSQRFGAVWTGDNTAEWDHLKISIPMCLSLGLVGLSFCGADVGGFFKNPEPELLVRWYQMGAYQPFFRAHAHLDTGRREPWLLPSQHNDIIRDALGQRYSLLPFWYTLLYQAHREGIPVMRPLWVQYPQDVTTFNIDDQYLLGDALLVHPVSDSGAHGVQVYLPGQGEVWYDIQSYQKHHGPQTLYLPVTLSSIPVFQRGGTIVPRWMRVRRSSECMKDDPITLFVALSPQGTAQGELFLDDGHTFNYQTRQEFLLRRFSFSGNTLVSSSADPEGHFETPIWIERVVIIGAGKPAAVVLQTKGSPESRLSFQHDPETSVLVLRKPGINVASDWSIHLR
B8: NOP56 (protein, UniProt O00567 1-594, looked up)
Nucleolar protein 56: MVLLHVLFEHAVGYALLALKEVEEISLLQPQVEESVLNLGKFHSIVRLVAFCPFASSQVALENANAVSEGVVHEDLRLLLETHLPSKKKKVLLGVGDPKIGAAIQEELGYNCQTGGVIAEILRGVRLHFHNLVKGLTDLSACKAQLGLGHSYSRAKVKFNVNRVDNMIIQSISLLDQLDKDINTFSMRVREWYGYHFPELVKIINDNATYCRLAQFIGNRRELNEDKLEKLEELTMDGAKAKAILDASRSSMGMDISAIDLINIESFSSRVVSLSEYRQSLHTYLRSKMSQVAPSLSALIGEAVGARLIAHAGSLTNLAKYPASTVQILGAEKALFRALKTRGNTPKYGLIFHSTFIGRAAAKNKGRISRYLANKCSIASRIDCFSEVPTSVFGEKLREQVEERLSFYETGEIPRKNLDVMKEAMVQAEEAAAEITRKLEKQEKKRLKKEKKRLAALALASSENSSSTPEECEEMSEKPKKKKKQKPQEVPQENGMEDPSISFSKPKKKKSFSKEELMSSDLEETAGSTSIPKRKKSTPKEETVNDPEEAGHRSGSKKKRKFSKEEPVSSGPEEAVGKSSSKKKKKFHKASQED

Test system: HCoV-OC43 gRNA and sgRNA
Assay type: binding
Conditions: OC43 Probe II, 12 hpi (type n_12_v), infected cells; tested against no-probe control

| Molecule | target (unweighted spectral count) |
| --- | --- |
| B1 | 5 |

Same assay, conditions: type n_48_v; 48 hpi; OC43 Probe II capture on infected cells

| Molecule | target (unweighted spectral count, OC43 Probe II) |
| --- | --- |
| B2 | 5 |
| B3 | 5 |
| B4 | 12 |
| B5 | 5 |
| B6 | 5 |
| B7 | 5 |
| B8 | 5 |

Same assay, conditions: type n_48_v; 48 hpi; no-probe control on infected cells

| Molecule | background (unweighted spectral count, no-probe control) |
| --- | --- |
| B2 | 1 |
| B3 | 1 |
| B4 | 3 |
| B5 | 1 |
| B6 | 1 |
| B7 | 1 |
| B8 | 1 |
